Source: the supplement of paper PMC9170038

Columns and labels:
[1] = tested on: MS2 coat protein; assay: apparent KD of MS2 coat protein, switch OFF state (with FMN for OFF switches, without FMN for ON switches); designed switch direction (-1 OFF switch, 1 ON switch): -1; higher = weaker reporter binding; conditions: FMN input: 0 or 200 uM; Eterna round: R93 (includes R88 designs)
Procedure, shortened: (§1)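 Designed RNA switches, transcribed on-chip from Illumina sequencing clusters, were titrated with SNAP-549-labelled MS2 coat protein from 0.7 or 1.5 nM to 3 µM in twofold steps. The solution was 100 mM Tris-HCl pH 7.5, 80 mM KCl, 4 mM MgCl2, with constant ligand or without it. Apparent KD is the median over each design's normalised cluster binding-curve fits.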

[2] = tested on: MS2 coat protein; assay: apparent KD of MS2 coat protein, switch ON state; designed switch direction (-1 OFF switch, 1 ON switch): -1; higher = weaker reporter binding; conditions: FMN input: 0 or 200 uM; Eterna round: R93 (includes R88 designs)
Procedure, shortened: as §1

Sequence | apparent KD of MS2 coat protein [1] [nM] | apparent KD of MS2 coat protein [2] [nM]
AGGCAGACAGGAUAUACUUGGGCAGCCAAUAUAAUAAUAUAACAUGAGGAUCACCCAUGUAGAAGGGUCAGAAA [JR_Exc002_Sub209] | 86.7 | 62.6
AAAUAGUUAGGAUAUACAUGAGGAUCACCCAUGUGGACUUAUGGCGAGUAAUUUAGUGGUAGAAGGGACUAAAA [EX2 Malc#29] | 47 | 46.2
UCCGAACAUGAGGAUCACCCAUGUCAGGAUAUACACCCAGCAUGUAAACCAUGCUCAAGUAGAAGGGACGGGUG [Teisaes] | 25.7 | 34.9
AAAAAUCGAGGAUAUACAUGAGGAUCACCCAUGUGGGACCAAGAAAACACAAAAGAAAGUAGAAGGCGAUAAAA [Ex 3 May 23] | 76.4 | 21.9
CUCAUGUAAGGAUAUCAGUAGUAAAAAAAUAAAAUUACUACUGAGAAGGUACAUGAGGAUCACCCAUGUCCGGG [EX4 374: Super Stable 74] | 18.3 | 21.7
AAGAACCUAGGAUAUACAUGAAAGAAAGAAAAGAAAAGAAAACAUGAGGAUCACCCAUGUAGAAGGAGGUAGAA [EteRNA is fun!] | 50.5 | 26.7
UAAAGACAUGAGGAUCACCCAUGUGAGGAUAUCGGAGAUAACAGAACAUCAAGUUCAGCGAGAAGGCACAGAAA [JR_Exc001_Sub402] | 72 | 47.2
AAGAAACAAGGAUAUACAUGAGGAUCACCCAUGUAAAAGAAAGAAAGGGAAGAGAAAAGUAGAAGGUGUAAGAA [Publius Rubrius Barbarus] | 46 | 26.1
AACAUACAUGAGGAUCACCCAUGUCAGGAUAUGCCGGGUUAGAACCAAAAAAAAAAACGUAGAAGGGACAAAAA [Bilbo Confounded 4 - Jieux - Exclusion 1] | 140 | 234
GAAAAGUGAGGAUAUGUCAAAAGUCACAAAAGUGACAAAAGACAGAAGGCACAUGAGGAUCACCCAUGUGGAAG [Mat - Exaclusion 4 - Eli mod - D52] | 41.1 | 33.8
AACAUGUCAGGAUAUAUAAGAAAAGAAAAGAAAGAAAAGAAAUAGAAGGGACAUGAGGAUCACCCAUGUAAGAA [EteRNA is fun!] | 29 | 45.2
AGCUAGUCAGGAUAUACGAACAUGUAAAAAGAAGUGAAGGGACAUGAGGAUCACCCAUGUAGAAGGGACUAGAA [74%, Web mod - With 3 less C's] | 109 | 55.5
AGCAAGUUAGGAUAUGCAAAGUCAGGACACACACUGACGAAGCAGAAGGAACAUGAGGAUCACCCAUGUAAGCA [Mat - Exaclusion 4 - Eli mod - D63] | 17.1 | 23.5
AAUAUCGGAGGAUAUGCAUAGAUAAAGAAUUAUGUUAAAACACAUGAGGAUCACCCAUGUAGAAGGCCGAUAAA [AJ 8] | 88 | 22.2
AAGAAGUCAGGAUAUGGAAAAGAAAAGAAAAGAAAAGAAAACCAGAAGGGACAUGAGGAUCACCCAUGUAAGAA [Xerxes I the Great] | 28.1 | 44.5
AAAAAACAUGAGGAUCACCCAUGUGAGGAUAUCCUAAACAAAAAAAACAAAAACAAAUGGAGAAGGCACAAAAA [Amethyst 35] | 126 | 105
GAAAAGUCAGGAUAUACAGAAAAAAAAACGAAAAAAAAUCUGUAGAAGGGACAUGAGGAUCACCCAUGUUAAAA [Mat - Exclusion 4 - Mayanna - D125] | 24 | 46.9
AAAAAGUCAGGAUAUGCAUGAGCAAAAAAAAAAAAGCUCAUGCAGAAGGGACAUGAGGAUCACCCAUGUAAAAA [Ex 4 May 10] | 48.6 | 70.2
AAAGGACAAGGAUAUACAUGAGGAUCACCCAUGUAAAAAACAUAAUAAAAUAACUUAUGUAGAAGGUGUCCAAA [Mat - Exclusion 3 - Eli mod - D99] | 57.1 | 23.1
AAAGUGUCAGGAUAUGCUGCUCGUCACGAAAGUGAUGAGUAGCAGAAGGGACAUGAGGAUCACCCAUGUAAAGA [Exclusion 4.1d (Exclusion4-cac2 - mutated U at 5 and G at 4)] | 205 | 110
AAAUUGUCAGGAUAUCGUAUAACUCUAAAAUAGAGGAGAUACGAGAAGGGACAUGAGGAUCACCCAUGUAAAAC [May 87] | 57.2 | 61.4
AAAUAGCAAGGAUAUACAUGAGGAUCACCCAUGUAAAAAUGGAAAGUAAUAAAAUAAAGUAGAAGGUGCAAAUA [Ex 3 Tesla 3] | 37 | 26.9

Sequence | apparent KD of MS2 coat protein [1] [nM] | apparent KD of MS2 coat protein [2] [nM]
AGUCAUACAGGAUAUACAUGAGGAUCACCCAUGUAUAUCCAAAAAAAAAAAAAAACAUGUAGAAGGGUAUGACA [EX3 207: Super Stable 7] | 7.41 | 10.8
AGUCAUACAGGAUAUACAUGAGGAUCACCCAUGUAUAUCCAAAAAAAGUGAUCCUCAUGUAGAAGGGUAUGACA [EX3 203: Super Stable 3] | 8.92 | 12
CUGCAGUAAGGAUAUACAUGAGGAUCACCCAUGUAGGAACUUACAGAACGAAACGCAUGUAGAAGGUACCAGAA [Enususge] | 14.3 | 14.2
GAAAUGUCAGGAUAUGCGAAGGCGUCUGAUAGACGAGGAUAGCAGAAGGGACAUGAGGAUCACCCAUGUAAAAA [Opal 13] | 220 | 117
AGCUAGUCAGGAUAUACGAAAAUGUCAGAAGCUGAGAAGGGACAUGAGGAUCACCCAUGUAGAAGGGACUAGCA [Diamond 37] | 316 | 70.2
CGCUAGUCAGGAUAUACAAACAUGUCAAAAGACGUGAAAAAACAUGAGGAUCACCCAUGUAGAAGGGACUAGCG [Mat - Exclusion 2 - JL mod - D18] | 17.7 | 15.7
AAGGGACAUGAGGAUCACCCAUGUCAGGAUAUGAUGCGAAUAAAGAAAGAAGAAAGCAUCAGAAGGGACACCAA [58%, Disencluded 3, 4] | 33.7 | 24.4
GAAAAGUGAGGAUAUGUCAAAAGUCACAAAAGUGACAAAAGACAGAAGGCACAUGAGGAUCACCCAUGUGGGAA [Mat - Exaclusion 4 - Eli mod - D50] | 211 | 58.5
AACUCGUCAGGAUAUGCGCACAGAUAAUACGCUACACAAAAGCAGAAGGGACAUGAGGAUCACCCAUGUAAAUA [JR_Exc004_Sub503] | 22.1 | 35.1
GAAAAACAUGAGGAUCACCCAUGUUAGGAUAUGCUAUGGAAAAUAAAAAAUAAACAUAGCAGAAGGAACAAAAG [Mat - Exclusion 1 - Eli mod - D31] | 36.7 | 20.3
AUGUAGGUAGGAUAUACAUGGAUAUACAUUCAUGUGGACCUACAUGAGGAUCACCCAUGUAGAAGGACCUAAAA [Mat - Same state - Mayanna Mod - D128] | 39.4 | 45
GAAAACAGAGGAUAUACAUGAUUAUGACGAAAGUCAUAAAAACAUGAGGAUCACCCAUGUAGAAGGCUGAAGAA [Meechl MS2 Ex2 2] | 164 | 130
UAAAGACAUGAGGAUCACCCAUGUGAGGAUAUCGGAGGUGACGGAACAUCGAGUUCGGCGAGAAGGCGCAGGAA [JR_Exc001_Sub408] | 49 | 69.6
GGGUCACAUGAGGAUCACCCAUGUAAGGAUAUGCUAGGGAUGGAAGCCAGGCCAAAAAGCAGAAGGUACUAAAG [Janelle Amethyst 18 Mod 15 - Jieux - Exclusion 1] | 85.8 | 41.2
GGAAAACAUGAGGAUCACCCAUGUCAGGAUAUACAAAGAAAGAAAGAAAAGAAAGAAAGUAGAAGGGACUAAAG [Amethyst 16] | 37.9 | 20.4
AGUCGGCGAGGAUAUACAUGAGGAUCACCCAUGUGAGAGAUAAAAGUGAGUUAGACAAGUAGAAGGCGCUGACA [JL Lego Mod 9] | 480 | 44.3
AAAAAACAUGAGGAUCACCCAUGUAAGGAUAUGCUGAAAAACACGGAAAAAACGUGCAGCAGAAGGUACAAAAA [66%, Wbt, 33] | 28.3 | 20.1
AGGUACCUAGGAUAUACAUGAGGAUCACCCAUGUCACAAAUAAAACACAGGUAUCCUGGUAGAAGGAGGAACAA [Veinle] | 36.5 | 24.1
AAAAAGCGAGGAUAUACAUGAGGAUCACCCAUGUCAAACGGUAAGACCGCAGGAAAAAGUAGAAGGCGCAAAAA [Exclusion3-02] | 96.8 | 65.9
UCCUCACAUGAGGAUCACCCAUGUGAGGAUAUGUACAUCAGGAAAAAAAAACUGAUGUACAGAAGGCACAUGGG [Design 8: Super Stable G-C] | 15.2 | 30.8
AUCAUGUUAGGAUAUACAAGAAAAGAAAAGAAAGAAAAGAAGUAGAAGGAACAUGAGGAUCACCCAUGUAAGAA [EteRNA is fun!] | 32.3 | 23.6
UGCAUGUAAGGAUAUGCAACCGGCGCACAUUAGCAGGUCAAGCAGAAGGUACAUGAGGAUCACCCAUGUGUCCG [Lalebiis] | 99.4 | 26.9
